Results on 7 molecules are retold here after US20020106690A1 (published 2002).

Substitutions are numbered along the chain they refer to. Names and notes keep the numbering of the source.

Series [1] addresses T1, Ste20p (Saccharomyces cerevisiae (yeast), UniProt Q03497 1-939).
T1 construct: Full length Ste20p in yeast cells (endogenous, or from pDH166 / pSTE20-5); also called STE20^WT; wild-type Ste20p
T1 sequence: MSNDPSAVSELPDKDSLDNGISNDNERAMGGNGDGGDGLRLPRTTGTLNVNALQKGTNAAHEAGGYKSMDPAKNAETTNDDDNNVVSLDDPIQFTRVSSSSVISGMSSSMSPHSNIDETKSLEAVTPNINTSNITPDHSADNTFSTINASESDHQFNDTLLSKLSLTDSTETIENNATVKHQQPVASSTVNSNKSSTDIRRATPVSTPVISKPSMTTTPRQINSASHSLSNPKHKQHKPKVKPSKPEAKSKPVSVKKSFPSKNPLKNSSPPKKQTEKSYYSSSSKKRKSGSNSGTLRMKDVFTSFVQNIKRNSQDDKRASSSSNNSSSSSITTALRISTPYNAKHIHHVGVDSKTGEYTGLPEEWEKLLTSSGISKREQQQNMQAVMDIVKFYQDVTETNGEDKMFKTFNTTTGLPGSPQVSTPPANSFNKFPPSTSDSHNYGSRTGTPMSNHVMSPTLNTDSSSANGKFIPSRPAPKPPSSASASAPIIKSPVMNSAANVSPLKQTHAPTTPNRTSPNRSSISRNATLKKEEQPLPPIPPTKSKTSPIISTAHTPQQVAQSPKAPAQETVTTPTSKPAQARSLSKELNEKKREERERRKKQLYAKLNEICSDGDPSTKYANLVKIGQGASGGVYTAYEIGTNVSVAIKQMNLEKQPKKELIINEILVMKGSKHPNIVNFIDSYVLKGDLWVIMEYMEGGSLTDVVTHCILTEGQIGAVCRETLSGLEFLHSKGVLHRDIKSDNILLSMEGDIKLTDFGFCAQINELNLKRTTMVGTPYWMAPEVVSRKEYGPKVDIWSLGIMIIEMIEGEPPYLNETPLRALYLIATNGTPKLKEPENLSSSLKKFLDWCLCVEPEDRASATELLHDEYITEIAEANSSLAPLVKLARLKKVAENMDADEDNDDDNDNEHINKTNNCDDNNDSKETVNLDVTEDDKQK
Kind of series: co-immunoprecipitation from yeast extracts, anti-HA IP, Western blot. The procedure: Relative amounts of Ste20p and HA-Ste4p were determined in Western blots (see example in upper and middle panels) and quantified densitometrically (mean values ±SD, n=3) (lower panel). (B) Association of Ste5p with HA-Ste4p expressed from the STE4 promoter in cells deleted for STE4 . HA-Ste4p immunoprecipitates from exponentially growing (−) and pheromone-treated (90 minutes) (+) yeast cells were analyzed with antibodies to Ste5p (upper panel) or HA-Ste4p (lower panel). (C) Overexpression of Ste4p leads to binding to Ste20p. HA-Ste4p was overexpressed from the GAL1 promoter in cells deleted for STE20 (lane 1) or STE4 (lanes 2 and 3). […] Immunoprecipitates obtained with antibodies to Ste20p (lanes 1 and 2) or the HA-epitope (lanes 3 and 4) were analyzed for the presence of Ste20p (upper panel) and HA-Ste4p (lower panel). […] HA-Ste4p (lanes 1 and 2) and Ste20p (lanes 3 and 4) immunoprecipitates were analyzed for the presence of Ste20p (upper panel) and HA-Ste4p (lower panel) by Western blot analyses. […]
For the detection of Ste20p fragments, a secondary sheep antibody specific to rabbit immunoglobulin light chains and a tertiary HRP-conjugated donkey antibody to sheep IgG were obtained from The Binding Site, Lim. […] For quantitation, immunoblots were evaluated by integrating densitometry using an Epson ES 1200-C densitometer and the NIH Image 1.59 software.
A general note: Immunoblotting shows a protein as a band on a membrane.

Series [2] has as its target T2, GST-Ste20p FL (Saccharomyces cerevisiae (yeast), UniProt Q03497 1-939).
T2 construct: Purified on glutathione-Sepharose beads; also called GST fusion with full length Ste20p; not shown: glutathione S-transferase (GST), amino-terminal fusion partner
T2 sequence: T1 sequence
The series is described as follows: GST pull-down of in vitro-translated 35S-Ste4p mutant, with HA-Ste18p present. From the text: Interaction of Ste4p mutants with Ste20p and Ste5p. […] Relative amounts of the GST fusion proteins and of ³⁵S-Ste4p were quantified by densitometric evaluation of Western blots and autoradiographs, respectively. Data are given as percentage of binding of wild-type ³⁵S-Ste4p (mean values ±SD, n≧3).
The beads were then washed three times with PBS, separated by SDS-PAGE and analysed by autoradiography of Western blots. Results were confirmed in at least three independent experiments. Immunodetection and evaluation of immunoblots and radiographs were then performed as described above. Data obtained for ³⁵S-Ste4p were corrected for relative concentrations of the respective GST fusion proteins.

Series [3] addresses T3, Ste4p, P18851.
T3 chain: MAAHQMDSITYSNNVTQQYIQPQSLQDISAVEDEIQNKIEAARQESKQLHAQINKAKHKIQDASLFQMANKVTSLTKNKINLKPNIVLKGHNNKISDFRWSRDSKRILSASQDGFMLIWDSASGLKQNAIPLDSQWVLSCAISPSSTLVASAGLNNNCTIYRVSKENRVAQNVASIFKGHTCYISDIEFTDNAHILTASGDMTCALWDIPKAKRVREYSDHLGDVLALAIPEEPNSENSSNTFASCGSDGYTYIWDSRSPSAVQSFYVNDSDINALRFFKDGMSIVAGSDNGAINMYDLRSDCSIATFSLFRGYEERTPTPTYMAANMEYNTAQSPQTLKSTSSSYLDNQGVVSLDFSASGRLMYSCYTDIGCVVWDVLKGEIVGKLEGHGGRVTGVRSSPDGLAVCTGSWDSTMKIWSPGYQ

Series [4] has as its target T4, Ste4p (Saccharomyces cerevisiae (yeast)) (UniProt P18851).
T4 sequence (35S-labelled methionine in the in vitro-translated form, looked up): T3 chain
Kind of series: GST pull-down of in vitro-translated 35S-Ste4p with HA-Ste18p present; normalized against wild-type Ste20p 819-939.

B1: HA-Ste4p (other, Saccharomyces cerevisiae (yeast), UniProt P18851 1-423, looked up, not shown: small tags and cut ends)
chain: T3 chain
On to B1, for which the binding result in series [1] is on record as “binds”.

B2: Ste4p K55E mutant (other, Saccharomyces cerevisiae (yeast), UniProt P18851 1-423, looked up)
chain: T3 chain with K55E
modifications: 35S-labelled methionine
notes: In vitro-translated, 35S-labelled; also called STE4^K55E; 35S-Ste4p K55E
Turning to B2, the binding result in series [2] is listed as “no binding”.

B3: Ste4p D62N mutant (other, Saccharomyces cerevisiae (yeast), UniProt P18851 1-423, looked up)
chain: T3 chain with D62N
modifications: 35S-labelled methionine
notes: In vitro-translated, 35S-labelled; also called STE4^D62N; 35S-Ste4p D62N
With B3, the binding result in series [2] is recorded as “no binding”.

B4: Ste20p^S879A/S880A/P883A (protein)
chain: T1 sequence with S879A, S880A, P883A
Regarding B4, in series [3], the FUS1::lacZ expression turned out to be 14, the G1 arrest result was “-”, the Mating efficiencies (%) turned out to be 0.039% and the Shmoo formation result is given as “-”.

B5: Ste20p^CLA4 (protein)
chain: T1 sequence with S879K, S880D, A882T, P883S, V885L, K886E, L887W
In the case of B5, in series [3], the FUS1::lacZ expression is 11, the G1 arrest entry was “-”, the Mating efficiencies (%) came to 0.016% and the Shmoo formation result was “-”.

B6: Ste20p^495-888 (protein)
chain: MNSAANVSPLKQTHAPTTPNRTSPNRSSISRNATLKKEEQPLPPIPPTKSKTSPIISTAHTPQQVAQSPKAPAQETVTTPTSKPAQARSLSKELNEKKREERERRKKQLYAKLNEICSDGDPSTKYANLVKIGQGASGGVYTAYEIGTNVSVAIKQMNLEKQPKKELIINEILVMKGSKHPNIVNFIDSYVLKGDLWVIMEYMEGGSLTDVVTHCILTEGQIGAVCRETLSGLEFLHSKGVLHRDIKSDNILLSMEGDIKLTDFGFCAQINELNLKRTTMVGTPYWMAPEVVSRKEYGPKVDIWSLGIMIIEMIEGEPPYLNETPLRALYLIATNGTPKLKEPENLSSSLKKFLDWCLCVEPEDRASATELLHDEYITEIAEANSSLAPLVKLA
For B6, in series [3], the FUS1::lacZ expression, Basal is 1.6; the FUS1::lacZ expression, Induced worked out at 148; the G1 arrest result was “+”; the Mating efficiencies (%) was 75.2%. Further, in series [3], the Shmoo formation result is given as “+”.

B7: GST fusion with the fragment from amino acid 819 to 939 of the Ste20p^S879A/S880A/P883A mutant (protein, not shown: a dimerising Fc or GST; large carriers; small tags and cut ends)
chain: PLRALYLIATNGTPKLKEPENLSSSLKKFLDWCLCVEPEDRASATELLHDEYITEIAEANAALAALVKLARLKKVAENMDADEDNDDDNDNEHINKTNNCDDNNDSKETVNLDVTEDDKQK
On to B7, for which the Binding to 35S-Ste4p (%) in series [4] is 15.2%.
